The text below walks through data of patent US20150328292A1, “CASPASE POLYPEPTIDES HAVING MODIFIED ACTIVITY AND USES THEREOF” (BELLICUM PHARMACEUTICALS, INC., priority 2014, published 2015).

“Also recorded” adds a separate entry of the source.

The assay concerns HEK293T/16 cells. As to the kind of experiment: SEAP reporter-based surrogate killing assay (basal activity and AP1903 IC50). Type of assay: cell-based, human. The note with it: AP1903-independent SEAP activity, vs wild type. On the procedure: FIG. 45 provides a schematic of an analysis of SEAP assays. […] of the mixture was seeded onto each well of a 96-well plate. […] For the assay, 4-methylumbelliferyl phosphate substrate was hydrolyzed by SEAP to 4-methylumbelliferon, a metabolite that can be excited with 364 nm and detected with an emission filter of 448 nm. Since SEAP is used as a marker for cell viability, reduced SEAP reading corresponds with increased icaspase-9 activities.
Early passage HEK293T/16 cells (ATCC, Manassas, Va.) were maintained in IMDM, GlutaMAX™ (Life Technologies, Carlsbad, Calif.) supplemented with 10% FBS, 100 U/mL penicillin, and 100 […] until transfection in a humidified, 37° C., 5% CO2/95% air atmosphere. Cells in logarithmic-phase growth were transiently transfected with 800 ng to 2 μg of expression plasmid encoding iCasp9 mutants and 500 ng of an expression plasmid encoding SRα promoter driven SEAP per million cells in 15-mL conical tubes. […] GeneJammer® Transfection Reagent at a ratio of 3 μl per ug of plasmid DNA was used to transiently transfect HEK293T/16 cells in the absence of antibiotics. 100 μl or 2 mL of the transfection mixture was added to each well in 96-well or 6-well plate, respectively.
Briefly, after 65° C. heat denaturation for 45 minutes to reduce background caused by endogenous (and serum-derived) alkaline phosphatases that are sensitive to heat, 5 μl of supernatants was added to 95 μl of PBS and added to 100 μl of substrate buffer, containing 1 μl of 100 mM 4-methylumbelliferyl phosphate (4-MUP; Sigma, St. Louis, Mo.) re-suspended in 2 M diethanolamine. Hydrolysis of 4-MUP by SEAP produces a fluorescent […] with excitation/emission (355/460 nm), which can be easily measured. Assays were performed in black opaque 96-well plates to minimize fluorescence leakage between wells (FIG. 45).

B1: T317C: chimeric modified caspase-9 polypeptide variant (protein)
chain: VDGFGDVGALESLRGNADLAYILSMEPCGHCLIINNVNFCRESGLRTRTGSNIDCEKLRRRFSSLHFMVEVKGDLTAKKMVLALLELARQDHGALDCCVVVILSHGCQASHLQFPGAVYGTDGCPVSVEKIVNIFNGTSCPSLGGKPKLFFIQACGGEQKDHGFEVASTSPEDESPGSNPEPDACPFQEGLRTFDQLDAISSLPTPSDIFVSYSTFPGFVSWRDPKSGSWYVETLDDIFEQWAHSEDLQSLLLRVANAVSVKGIYKQMPGCFNFLRKKLFFKTSASRA
Consider B1, for which the “basal activity / basal signaling (in words)” value is on record as “no effect”.

B2: T317S: chimeric modified caspase-9 polypeptide variant (protein)
chain: VDGFGDVGALESLRGNADLAYILSMEPCGHCLIINNVNFCRESGLRTRTGSNIDCEKLRRRFSSLHFMVEVKGDLTAKKMVLALLELARQDHGALDCCVVVILSHGCQASHLQFPGAVYGTDGCPVSVEKIVNIFNGTSCPSLGGKPKLFFIQACGGEQKDHGFEVASTSPEDESPGSNPEPDASPFQEGLRTFDQLDAISSLPTPSDIFVSYSTFPGFVSWRDPKSGSWYVETLDDIFEQWAHSEDLQSLLLRVANAVSVKGIYKQMPGCFNFLRKKLFFKTSASRA
As for B2, the “basal activity / basal signaling (in words)” value is reported as “lower basal activity; also recorded: reduce basal activity; also recorded: decrease in basal activity”.

B3: D330G: chimeric modified caspase-9 polypeptide variant (protein)
chain: VDGFGDVGALESLRGNADLAYILSMEPCGHCLIINNVNFCRESGLRTRTGSNIDCEKLRRRFSSLHFMVEVKGDLTAKKMVLALLELARQDHGALDCCVVVILSHGCQASHLQFPGAVYGTDGCPVSVEKIVNIFNGTSCPSLGGKPKLFFIQACGGEQKDHGFEVASTSPEDESPGSNPEPDATPFQEGLRTFDQLGAISSLPTPSDIFVSYSTFPGFVSWRDPKSGSWYVETLDDIFEQWAHSEDLQSLLLRVANAVSVKGIYKQMPGCFNFLRKKLFFKTSASRA
On to B3, for which the “basal activity / basal signaling (in words)” value is “less basal activity than wild type caspase-9”.

B4: T317A: chimeric modified caspase-9 polypeptide variant (protein)
chain: VDGFGDVGALESLRGNADLAYILSMEPCGHCLIINNVNFCRESGLRTRTGSNIDCEKLRRRFSSLHFMVEVKGDLTAKKMVLALLELARQDHGALDCCVVVILSHGCQASHLQFPGAVYGTDGCPVSVEKIVNIFNGTSCPSLGGKPKLFFIQACGGEQKDHGFEVASTSPEDESPGSNPEPDAAPFQEGLRTFDQLDAISSLPTPSDIFVSYSTFPGFVSWRDPKSGSWYVETLDDIFEQWAHSEDLQSLLLRVANAVSVKGIYKQMPGCFNFLRKKLFFKTSASRA
For the molecule B4, the “basal activity / basal signaling (in words)” value is “lower basal activity; also recorded: reduce basal activity; also recorded: decrease in basal activity”.

B5: A316G: chimeric modified caspase-9 polypeptide variant (protein)
chain: VDGFGDVGALESLRGNADLAYILSMEPCGHCLIINNVNFCRESGLRTRTGSNIDCEKLRRRFSSLHFMVEVKGDLTAKKMVLALLELARQDHGALDCCVVVILSHGCQASHLQFPGAVYGTDGCPVSVEKIVNIFNGTSCPSLGGKPKLFFIQACGGEQKDHGFEVASTSPEDESPGSNPEPDGTPFQEGLRTFDQLDAISSLPTPSDIFVSYSTFPGFVSWRDPKSGSWYVETLDDIFEQWAHSEDLQSLLLRVANAVSVKGIYKQMPGCFNFLRKKLFFKTSASRA
Take B5: the “basal activity / basal signaling (in words)” value is listed as “lower basal activity”.

B6: D330V: chimeric modified caspase-9 polypeptide variant (protein)
chain: VDGFGDVGALESLRGNADLAYILSMEPCGHCLIINNVNFCRESGLRTRTGSNIDCEKLRRRFSSLHFMVEVKGDLTAKKMVLALLELARQDHGALDCCVVVILSHGCQASHLQFPGAVYGTDGCPVSVEKIVNIFNGTSCPSLGGKPKLFFIQACGGEQKDHGFEVASTSPEDESPGSNPEPDATPFQEGLRTFDQLVAISSLPTPSDIFVSYSTFPGFVSWRDPKSGSWYVETLDDIFEQWAHSEDLQSLLLRVANAVSVKGIYKQMPGCFNFLRKKLFFKTSASRA
Regarding B6, the “basal activity / basal signaling (in words)” value is recorded as “less basal activity than wild type caspase-9”.

B7: D330N: chimeric modified caspase-9 polypeptide variant (protein)
chain: VDGFGDVGALESLRGNADLAYILSMEPCGHCLIINNVNFCRESGLRTRTGSNIDCEKLRRRFSSLHFMVEVKGDLTAKKMVLALLELARQDHGALDCCVVVILSHGCQASHLQFPGAVYGTDGCPVSVEKIVNIFNGTSCPSLGGKPKLFFIQACGGEQKDHGFEVASTSPEDESPGSNPEPDATPFQEGLRTFDQLNAISSLPTPSDIFVSYSTFPGFVSWRDPKSGSWYVETLDDIFEQWAHSEDLQSLLLRVANAVSVKGIYKQMPGCFNFLRKKLFFKTSASRA
On to B7, for which the “basal activity / basal signaling (in words)” value is reported as “less basal activity than wild type caspase-9”.

B8: ^316ATPF^319AVPI: caspase-9 with ATPF tetrapeptide replaced by SMAC/DIABLO AVPI (protein, UniProt P55211 1-416, looked up, variant T317V F319I)
chain: MDEADRRLLRRCRLRLVEELQVDQLWDALLSRELFRPHMIEDIQRAGSGSRRDQARQLIIDLETRGSQALPLFISCLEDTGQDMLASFLRTNRQAAKLSKPTLENLTPVVLRPEIRKPEVLRPETPRPVDIGSGGFGDVGALESLRGNADLAYILSMEPCGHCLIINNVNFCRESGLRTRTGSNIDCEKLRRRFSSLHFMVEVKGDLTAKKMVLALLELAQQDHGALDCCVVVILSHGCQASHLQFPGAVYGTDGCPVSVEKIVNIFNGTSCPSLGGKPKLFFIQACGGEQKDHGFEVASTSPEDESPGSNPEPDAVPIQEGLRTFDQLDAISSLPTPSDIFVSYSTFPGFVSWRDPKSGSWYVETLDDIFEQWAHSEDLQSLLLRVANAVSVKGIYKQMPGCFNFLRKKLFFKTS
With B8, the “basal activity / basal signaling (in words)” value was “no effect”.

B9: P318A: chimeric modified caspase-9 polypeptide variant (protein, UniProt P55211 1-416, looked up, variant P318A)
chain: MDEADRRLLRRCRLRLVEELQVDQLWDALLSRELFRPHMIEDIQRAGSGSRRDQARQLIIDLETRGSQALPLFISCLEDTGQDMLASFLRTNRQAAKLSKPTLENLTPVVLRPEIRKPEVLRPETPRPVDIGSGGFGDVGALESLRGNADLAYILSMEPCGHCLIINNVNFCRESGLRTRTGSNIDCEKLRRRFSSLHFMVEVKGDLTAKKMVLALLELAQQDHGALDCCVVVILSHGCQASHLQFPGAVYGTDGCPVSVEKIVNIFNGTSCPSLGGKPKLFFIQACGGEQKDHGFEVASTSPEDESPGSNPEPDATAFQEGLRTFDQLDAISSLPTPSDIFVSYSTFPGFVSWRDPKSGSWYVETLDDIFEQWAHSEDLQSLLLRVANAVSVKGIYKQMPGCFNFLRKKLFFKTS
modifications: chimeric, fused to FKBP12v36
notes: chimeric modified caspase-9 polypeptide variant
Turning to B9, the “basal activity / basal signaling (in words)” value is “no effect”.

B10: F319A: chimeric modified caspase-9 polypeptide variant (protein, UniProt P55211 1-416, looked up, variant F319A)
chain: MDEADRRLLRRCRLRLVEELQVDQLWDALLSRELFRPHMIEDIQRAGSGSRRDQARQLIIDLETRGSQALPLFISCLEDTGQDMLASFLRTNRQAAKLSKPTLENLTPVVLRPEIRKPEVLRPETPRPVDIGSGGFGDVGALESLRGNADLAYILSMEPCGHCLIINNVNFCRESGLRTRTGSNIDCEKLRRRFSSLHFMVEVKGDLTAKKMVLALLELAQQDHGALDCCVVVILSHGCQASHLQFPGAVYGTDGCPVSVEKIVNIFNGTSCPSLGGKPKLFFIQACGGEQKDHGFEVASTSPEDESPGSNPEPDATPAQEGLRTFDQLDAISSLPTPSDIFVSYSTFPGFVSWRDPKSGSWYVETLDDIFEQWAHSEDLQSLLLRVANAVSVKGIYKQMPGCFNFLRKKLFFKTS
modifications: chimeric, fused to FKBP12v36
notes: as for B9
With B10, the “basal activity / basal signaling (in words)” value was “no effect”.

B11: F319W: chimeric modified caspase-9 polypeptide variant (protein, UniProt P55211 1-416, looked up, variant F319W)
chain: MDEADRRLLRRCRLRLVEELQVDQLWDALLSRELFRPHMIEDIQRAGSGSRRDQARQLIIDLETRGSQALPLFISCLEDTGQDMLASFLRTNRQAAKLSKPTLENLTPVVLRPEIRKPEVLRPETPRPVDIGSGGFGDVGALESLRGNADLAYILSMEPCGHCLIINNVNFCRESGLRTRTGSNIDCEKLRRRFSSLHFMVEVKGDLTAKKMVLALLELAQQDHGALDCCVVVILSHGCQASHLQFPGAVYGTDGCPVSVEKIVNIFNGTSCPSLGGKPKLFFIQACGGEQKDHGFEVASTSPEDESPGSNPEPDATPWQEGLRTFDQLDAISSLPTPSDIFVSYSTFPGFVSWRDPKSGSWYVETLDDIFEQWAHSEDLQSLLLRVANAVSVKGIYKQMPGCFNFLRKKLFFKTS
modifications: chimeric, fused to FKBP12v36
notes: as for B9
Turning to B11, the “basal activity / basal signaling (in words)” value is on record as “lower basal activity”.
